Substitutions are numbered along the chain they refer to.
T1: MAGE-A4 peptide on HLA-A*02:01 (human)
T1 peptide: KVLEHVVRV

T2: MAGE-A4 peptide on HLA-A*02:01 (human)
T2 peptide: GVYDGREHTV

T3: MAGE-A8 peptide on HLA-A*02:01 (human)
T3 peptide: GLYDGREHSV

B1: PN41550 (TCR, V domains shown)
V domain 1: QKEVEQNSGPLSVPEGAIASLNCTYSDRGSQSFFWYRQYSGKSPELIMSIYSNGDKEDGRFTAQLNKASQYVSLLIRDSQPSDSATYLCAVNLSWGKFQFGAGTQVVVTP
V domain 2: DAGVTQSPTHLIKTRGQQVTLRCSPKSGHDTVSWYQQALGQGPQFIFQYYEEEERQRGNFPDRFSGHQFPNYSSELNVNALLLGDSALYLCASSLDRSTEAFFGQGTRLTVV
notes: stained with anti-mouse TCR constant region H57-597; full-length chains on transfected CHO cells; also called TCR No. 10
B2: PN41557 (TCR, V domains shown)
V domain 1: EDQVTQSPEALRLQEGESSSLNCSYTVSGLRGLFWYRQDPGKGPEFLFTLYSAGEEKEKERLKATLTKKESFLHITAPKPEDSATYLCAVQAVTGGGNKLTFGTGTQLKVEL
V domain 2: GAVVSQHPSWVICKSGTSVKIECRSLDFQATTMFWYRQFPKQSLMLMATSNEGSKATYEQGVEKDKFLINHASLTLSTLTVTSAHPEDSSFYICSASWDRDYGYTFGSGTRLTVV
notes: stained with anti-mouse TCR constant region H57-597; full-length chains on transfected CHO cells; also called TCR No. 11
B3: PN41539 (TCR, V domains shown)
V domain 1: AQKVTQAQTEISVVEKEDVTLDCVYETRDTTYYLFWYKQPPSGELVFLIRRNSFDEQNEISGRYSWNFQKSTSSFNFTITASQVVDSAVYFCALSEGDTGGFKTIFGAGTRLFVKA
V domain 2: NAGVTQTPKFRILKIGQSMTLQCAQDMNHNYMYWYRQDPGMGLKLIYYSVGAGITDKGEVPNGYNVSRSTTEYFPLRLELAAPSQTSVYFCASSYFPDRGLGNTIYFGEGSWLTVV
notes: stained with anti-mouse TCR constant region H57-597; full-length chains on transfected CHO cells; also called TCR No. 9
B4: PN41613 (TCR, V domains shown)
V domain 1: AQTVTQSQPEMSVQEAETVTLSCTYDTSESDYYLFWYKQPPSRQMILVIRQEAYKQQNATENRFSVNFQKAAKSFSLKISDSQLGDAAMYFCAYRSATGNQFYFGTGTSLTVIP
V domain 2: EAQVTQNPRYLITVTGKKLTVTCSQNMNHEYMSWYRQDPGLGLRQIYYSMNVEVTDKGDVPEGYKVSRKEKRNFPLILESPSPNQTSLYFCASSLLYSNQPQHFGDGTRLSIL
notes: stained with anti-mouse TCR constant region H57-597; full-length chains on transfected CHO cells; also called TCR No. 19
B5: PN41867 (TCR, V domains shown)
V domain 1: AQTVTQSQPEMSVQEAETVTLSCTYDTSENNYYLFWYKQPPSRQMILVIRQEAYKQQNATENRFSVNFQKAAKSFSLKISDSQLGDTAMYFCAFMKTQGGSEKLVFGKGTKLTVNP
V domain 2: AAGVIQSPRHLIKEKRETATLKCYPIPRHDTVYWYQQGPGQDPQFLISFYEKMQSDKGSIPDRFSAQQFSDYHSELNMSSLELGDSALYFCASSLVGYGYTFGSGTRLTVV
notes: stained with anti-mouse TCR constant region H57-597; full-length chains on transfected CHO cells; also called TCR No. 36
B6: PN41839 (TCR, V domains shown)
V domain 1: DAKTTQPPSMDCAEGRAANLPCNHSTISGNEYVYWYRQIHSQGPQYIIHGLKNNETNEMASLIITEDRKSSTLILPHATLRDTAVYYCIVYGGSQGNLIFGKGTKLSVKP
V domain 2: DAGVTQSPTHLIKTRGQQVTLRCSPKSGHDTVSWYQQALGQGPQFIFQYYEEEERQRGNFPDRFSGHQFPNYSSELNVNALLLGDSALYLCASSFSRVQPQHFGDGTRLSIL
notes: stained with anti-mouse TCR constant region H57-597; full-length chains on transfected CHO cells; also called TCR No. 34
B7: PN41516 (TCR, V domains shown)
V domain 1: TQLLEQSPQFLSIQEGENLTVYCNSSSVFSSLQWYRQEPGEGPVLLVTVVTGGEVKKLKRLTFQFGDARKDSSLHITAAQPGDTGLYLCAGERDSWGKFQFGAGTQVVVTP
V domain 2: NAGVTQTPKFRILKIGQSMTLQCAQDMNHNYMYWYRQDPGMGLKLIYYSVGAGITDKGEVPNGYNVSRSTTEYFPLRLELAAPSQTSVYFCASSFWTGGDEKLFFGSGTQLSVL
notes: stained with anti-mouse TCR constant region H57-597; full-length chains on transfected CHO cells; also called TCR No. 4
B8: PN41703 (TCR, V domains shown)
V domain 1: DAKTTQPPSMDCAEGRAANLPCNHSTISGNEYVYWYRQIHSQGPQYIIHGLKNNETNEMASLIITEDRKSSTLILPHATLRDTAVYYCIVRPGGTYKYIFGTGTRLKVLA
V domain 2: DVKVTQSSRYLVKRTGEKVFLECVQDMDHENMFWYRQDPGLGLRLIYFSYDVKMKEKGDIPEGYSVSREKKERFSLILESASTNQTSMYLCATGGDNQPQHFGDGTRLSIL
notes: stained with anti-mouse TCR constant region H57-597; full-length chains on transfected CHO cells; also called TCR No. 26
B9: PN41712 (TCR, V domains shown)
V domain 1: AQTVTQSQPEMSVQEAETVTLSCTYDTSENNYYLFWYKQPPSRQMILVIRQEAYKQQNATENRFSVNFQKAAKSFSLKISDSQLGDTAMYFCALNTGNQFYFGTGTSLTVIP
V domain 2: GAVVSQHPSWVICKSGTSVKIECRSLDFQATTMFWYRQFPKQSLMLMATSNEGSKATYEQGVEKDKFLINHASLTLSTLTVTSAHPEDSSFYICSAWDGFYGYTFGSGTRLTVV
notes: stained with anti-mouse TCR constant region H57-597; full-length chains on transfected CHO cells; also called TCR No. 27
B10: PN41748 (TCR, V domains shown)
V domain 1: SQELEQSQQSLIVQEGKNLTINCTSSKTLYGLYWYKQKYGEGLIFLMMLQKGGEEKSHEKITAKLDEKKQQSSLHITASQPSHAGIYLCGADMYSGGGADGLTFGKGTHLIIQP
V domain 2: B9 V domain 2
notes: stained with anti-mouse TCR constant region H57-597; full-length chains on transfected CHO cells; also called TCR No. 29
B11: PN41805 (TCR, V domains shown)
V domain 1: AQTVTQSQPEMSVQEAETVTLSCTYDTSENNYYLFWYKQPPSRQMILVIRQEAYKQQNATENRFSVNFQKAAKSFSLKISDSQLGDTAMYFCAFGMYSGGGADGLTFGKGTHLIIQP
V domain 2: AAGVIQSPRHLIKEKRETATLKCYPIPRHDTVYWYQQGPGQDPQFLISFYEKMQSDKGSIPDRFSAQQFSDYHSELNMSSLELGDSALYFCASSPTGTGDGYTFGSGTRLTVV
notes: stained with anti-mouse TCR constant region H57-597; full-length chains on transfected CHO cells; also called TCR No. 30
B12: PN45418 (TCR, V domains shown)
V domain 1: EDQVTQSPEALRLQEGESSSLNCSYTVSGLRGLFWYRQDPGKGPEFLFTLYSAGEEKEKERLKATLTKKESFLHITAPKPEDSATYLCAVQPSYSGAGSYQLTFGKGTKLSVIP
V domain 2: EAQVTQNPRYLITVTGKKLTVTCSQNMNHEYMSWYRQDPGLGLRQIYYSMNVEVTDKGDVPEGYKVSRKEKRNFPLILESPSPNQTSLYFCASSPGTGGFSPLHFGNGTRLTVT
notes: stained with anti-mouse TCR constant region H57-597; full-length chains on transfected CHO cells; also called TCR No. 46
B13: PN45584 (TCR, V domains shown)
V domain 1: AQKITQTQPGMFVQEKEAVTLDCTYDTSDPSYGLFWYKQPSSGEMIFLIYQGSYDEQNATEGRYSLNFQKARKSANLVISASQLGDSAMYFCAMREGPGSGNTGKLIFGQGTTLQVKP
V domain 2: NAGVTQTPKFRILKIGQSMTLQCAQDMNHNYMYWYRQDPGMGLKLIYYSVGAGITDKGEVPNGYNVSRSTTEYFPLRLELAAPSQTSVYFCASSYSEWQNYGYTFGSGTRLTVV
notes: stained with anti-mouse TCR constant region H57-597; full-length chains on transfected CHO cells; also called TCR No. 43
B14: PN45557 (TCR, V domains shown)
V domain 1: B13 V domain 1 with E56Q
V domain 2: B13 V domain 2
notes: full-length chains on transfected CHO cells; also called TCR No. 52
B15: PN45515 (TCR, V domains shown)
V domain 1: DAKTTQPPSMDCAEGRAANLPCNHSTISGNEYVYWYRQIHSQGPQYIIHGLKNNETNEMASLIITEDRKSSTLILPHATLRDTAVYYCIVRPYNAGNNRKLIWGLGTSLAVNP
V domain 2: DVKVTQSSRYLVKRTGEKVFLECVQDMDHENMFWYRQDPGLGLRLIYFSYDVKMKEKGDIPEGYSVSREKKERFSLILESASTNQTSMYLCASSFGGGYYGYTFGSGTRLTVV
notes: stained with anti-mouse TCR constant region H57-597; full-length chains on transfected CHO cells; also called TCR No. 39
B16: PN45539 (TCR, V domains shown)
V domain 1: B15 V domain 1
V domain 2: B15 V domain 2 with G96E
notes: stained with anti-mouse TCR constant region H57-597; full-length chains on transfected CHO cells; also called TCR No. 41
B17: PN45593 (TCR, V domains shown)
V domain 1: AQKITQTQPGMFVQEKEAVTLDCTYDTSDPSYGLFWYKQPSSGEMIFLIYQGSYDQQNATEGRYSLNFQKARKSANLVISASQLGDSAMYFCAMREGPGNNARLMFGDGTQLVVKP
V domain 2: NAGVTQTPKFRVLKTGQSMTLLCAQDMNHEYMYWYRQDPGMGLRLIHYSVGEGTTAKGEVPDGYNVSRLKKQNFLLGLESAAPSQTSVYFCASSYWDRGSPLHFGNGTRLTVT
notes: stained with anti-mouse TCR constant region H57-597; full-length chains on transfected CHO cells; also called TCR No. 40
B18: PN45581 (TCR, V domains shown)
V domain 1: B17 V domain 1
V domain 2: EAQVTQTPRYLITVTGKKLTVTCSQNMNHEYMSWYRQDPGLGLRQIYYSMNVEVTDKGDVPEGYKVSRKEKRNFPLILESPSPNQTSLYFCASSLWTGGGYTFGSGTRLTVV
notes: stained with anti-mouse TCR constant region H57-597; full-length chains on transfected CHO cells; also called TCR No. 44

Molecular target: T1, MAGE-A4 peptide on HLA-A*02:01
Assay: multimer staining
B1: recognises.
B2: recognises.
B3: recognises.
B4: recognises.
B5: recognises.
B6: recognises.
B7: recognises.
B8: recognises.
B9: recognises.
B10: recognises.
B11: recognises.

Molecular target: T2, MAGE-A4 peptide on HLA-A*02:01
Assay: multimer staining
B12: recognises.
B13: recognises.
B14: recognises.
B15: recognises.
B16: recognises.
B17: recognises.
B18: recognises.

Molecular target: T3, MAGE-A8 peptide on HLA-A*02:01
Assay: multimer staining
B14: recognises.
B15: no recognition.

What follows are binders tested against T4, soluble HLA-A2 (…) tetramer (human) (assay: flow cytometry, HLA-A2 (…) tetramer staining of CHO cells transfected with the TCR).
T4 construct: Bought tetramer reagent; also called MAGE-A4/HLA tetramer reagent; HLA-A02:01 MAGE-A4 tetramer
Protocol: Samples were then analyzed on an LSRFortessa X-20 (BD Biosciences, San Jose, Calif.).
With B1 the “% in Ag+ gate >250 MFI, >1%” value was 92.2%.
For B2, the “% in Ag+ gate >250 MFI, >1%” value was 8.76%.
For B3, the “% in Ag+ gate >250 MFI, >1%” value was 10.9%.
With B4 the “% in Ag+ gate >250 MFI, >1%” value was 58.7%.
B5 was tested, and the “% in Ag+ gate >250 MFI, >1%” value was 73%.
In the case of B6, the “% in Ag+ gate >250 MFI, >1%” value is reported as 85.4%.
B7 was tested, and the “% in Ag+ gate >250 MFI, >1%” value was 7.83%.
For B8, the “% in Ag+ gate >250 MFI, >1%” value was 42.5%.
B9 was tested, and the “% in Ag+ gate >250 MFI, >1%” value was 20.7%.
For B10, the “% in Ag+ gate >250 MFI, >1%” value was 9.56%.
B11 was tested, and the “% in Ag+ gate >250 MFI, >1%” value was 30.4%.

The binders below were run against T5, soluble HLA-A2 MAGE-A4 (…) tetramer (human) (assay: flow cytometry, HLA-A2 MAGE-A4 (…) tetramer staining of CHO cells transfected with the TCR).
T5 construct: Bought tetramer reagent; also called MAGE-A4/HLA tetramer reagent; HLA-A02:01 MAGE-A4 tetramer
Protocol: (§1) Samples were then analyzed on an LSRFortessa X-20 (BD Biosciences, San Jose, Calif.). […] However, a more stringent cutoff, such as 3%, could be used to separate out Ag+ TCRs that behave better in the binding assay. Ag+ TCRs were determined by Next Generation Sequencing.
In the case of B12, the “% tetramer in Ag+ gate (MAGE-A4)” value is reported as 12.3%.
In the case of B13, the “% tetramer in Ag+ gate (MAGE-A4)” value is reported as 69.1%.
For B14, the “% tetramer in Ag+ gate (MAGE-A4)” value was 94.7%.
B15 was tested, and the “% tetramer in Ag+ gate (MAGE-A4)” value was 11.5%.
For B16, the “% tetramer in Ag+ gate (MAGE-A4)” value was 59.8%.
For B17, the “% tetramer in Ag+ gate (MAGE-A4)” value was 56.5%.
For B18, the “% tetramer in Ag+ gate (MAGE-A4)” value was 3.18%.

What follows are binders tested against T6, soluble HLA-A2 MAGE-A8 (…) tetramer (human) (assay: flow cytometry, HLA-A2 MAGE-A8 (…) tetramer staining of CHO cells transfected with the TCR).
T6 construct: Bought tetramer reagent; also called MAGE-A8/HLA tetramer reagent; HLA-A02:01 MAGE-A8 tetramer
Protocol: as §1
In the case of B12, the “% tetramer in Ag+ gate (MAGE-A8)” value is reported as 1.24%.
With B14 the “% tetramer in Ag+ gate (MAGE-A8)” value was 66.3%.

These binders were tested against T5, soluble HLA-A2 MAGE-A4 (…) tetramer (assay: flow cytometry tetramer staining; % with MAGE-A4 tetramer divided by % with MAGE-A8 tetramer (reference)).
Protocol: as §1
With B12 the “MAGE-A4/MAGE-A8 (ratio of % tetramer in Ag+ gate)” value was 9.92.
In the case of B14, the “MAGE-A4/MAGE-A8 (ratio of % tetramer in Ag+ gate)” value is reported as 1.43.
For B15, the “MAGE-A4/MAGE-A8 (ratio of % tetramer in Ag+ gate)” value was 1150.
In the case of B16, the “MAGE-A4/MAGE-A8 (ratio of % tetramer in Ag+ gate)” value is reported as 498.
B17 was tested, and the “MAGE-A4/MAGE-A8 (ratio of % tetramer in Ag+ gate)” value was 991.
With B18 the “MAGE-A4/MAGE-A8 (ratio of % tetramer in Ag+ gate)” value was 18.7.

From US20220324939A1 (Regeneron, published 2022)
